# Test results as given in IntAct's records for PubMed 29039417.
# B1: BBSome complex member BBS2 (Homo sapiens), Q9BXC9 (parent)
# chain: MLLPVFTLKLRHKISPRMVAIGRYDGTHPCLAAATQTGKVFIHNPHTRNQHVSASRVFQSPLESDVSLLSINQAVSCLTAGVLNPELGYDALLVGTQTNLLAYDVYNNSDLFYREVADGANAIVLGTLGDISSPLAIIGGNCALQGFNHEGSDLFWTVTGDNVNSLALCDFDGDGKKELLVGSEDFDIRVFKEDEIVAEMTETEIVTSLCPMYGSRFGYALSNGTVGVYDKTSRYWRIKSKNHAMSIHAFDLNSDGVNELITGWSNGKVDARSDRTGEVIFKDNFSSAIAGVVEGDYRMDGHIQLICCSVDGEIRGYLPGTAEMRGNLMDTSAEQDLIRELSQKKQNLLLELRNYEENAKAELASPLNEADGHRGIIPANTRLHTTLSVSLGNETQTAHTELRISTSNDTIIRAVLIFAEGIFTGESHVVHPSIHNLSSSICIPIVPPKDVPVDLHLKAFVGYRSSTQFHVFESTRQLPRFSMYALTSLDPASEPISYVNFTIAERAQRVVVWLGQNFLLPEDTHIQNAPFQVCFTSLRNGGHLHIKIKLSGEITINTDDIDLAGDIIQSMASFFAIEDLQVEADFPVYFEELRKVLVKVDEYHSVHQKLSADMADHSNLIRSLLVGAEDARLMRDMKTMKSRYMELYDLNRDLLNGYKIRCNNHTELLGNLKAVNQAIQRAGRLRVGKPKNQVITACRDAIRSNNINTLFKIMRVGTASS
# partner: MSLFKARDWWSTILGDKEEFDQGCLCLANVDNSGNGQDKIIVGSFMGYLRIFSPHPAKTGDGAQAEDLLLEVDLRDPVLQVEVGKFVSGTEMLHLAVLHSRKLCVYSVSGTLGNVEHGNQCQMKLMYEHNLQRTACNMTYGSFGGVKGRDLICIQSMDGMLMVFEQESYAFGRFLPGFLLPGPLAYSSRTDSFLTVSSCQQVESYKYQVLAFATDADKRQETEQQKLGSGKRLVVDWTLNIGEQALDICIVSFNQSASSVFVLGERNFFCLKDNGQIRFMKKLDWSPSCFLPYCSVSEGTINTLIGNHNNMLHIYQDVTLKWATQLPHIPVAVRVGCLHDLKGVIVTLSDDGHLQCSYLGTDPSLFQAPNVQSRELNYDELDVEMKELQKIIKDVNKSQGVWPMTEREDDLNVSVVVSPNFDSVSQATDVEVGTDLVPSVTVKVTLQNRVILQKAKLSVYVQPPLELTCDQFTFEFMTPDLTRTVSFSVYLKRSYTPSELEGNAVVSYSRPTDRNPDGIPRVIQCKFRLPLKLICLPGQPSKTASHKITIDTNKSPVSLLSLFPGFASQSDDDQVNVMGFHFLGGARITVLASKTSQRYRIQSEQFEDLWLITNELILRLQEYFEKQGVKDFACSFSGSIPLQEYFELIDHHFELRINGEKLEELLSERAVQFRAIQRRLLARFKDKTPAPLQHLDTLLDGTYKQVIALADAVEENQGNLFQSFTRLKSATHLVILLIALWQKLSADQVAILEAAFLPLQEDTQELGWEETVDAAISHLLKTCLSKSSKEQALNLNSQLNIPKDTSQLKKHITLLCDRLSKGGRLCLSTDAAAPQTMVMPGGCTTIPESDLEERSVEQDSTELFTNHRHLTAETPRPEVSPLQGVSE
# Variants of: B1
# Conditions: with pthb1_human BBS9, Q3SYG4
row,Variant,effect of a mutation on the interaction
1,T395A,with no effect
2,T395K,with no effect
3,T395E,with no effect
4,S407E,with no effect
5,S407A,with no effect
6,S407F,disrupting interaction strength
7,S407K,with no effect
8,I376E,with no effect
9,I376V,disrupting interaction strength
10,I376K,with no effect
11,I376A,with no effect
12,N408K,with no effect
13,N408E,with no effect
14,N408A,disrupting interaction strength
15,P366K,with no effect
16,P366A,with no effect
17,P366E,with no effect
18,L416A,with no effect
19,L416E,with no effect
20,L416K,with no effect
21,R413A,with no effect
22,R413E,with no effect
23,R413K,disrupting interaction strength
24,N393A,with no effect
25,N393E,with no effect

row,Variant,effect of a mutation on the interaction
1,N393K,with no effect
2,I404A,with no effect
3,I404E,with no effect
4,I404K,with no effect
5,N380E,disrupting interaction strength
6,N380A,disrupting interaction strength
7,N380K,with no effect
8,I377R,disrupting interaction strength
9,I377A,with no effect
10,I377K,with no effect
11,I377E,with no effect
12,I377T,disrupting interaction strength
13,T386K,with no effect
14,T386E,with no effect
15,T386A,with no effect
16,E369K,with no effect
17,E369A,with no effect
18,L383E,with no effect
19,L383K,with no effect
20,L383A,with no effect
21,V415A,with no effect
22,V415E,with no effect
23,V415K,with no effect
24,D409A,with no effect
25,D409K,with no effect

row,Variant,effect of a mutation on the interaction
1,D409E,with no effect
2,Q396E,with no effect
3,Q396K,with no effect
4,Q396A,with no effect
5,S405K,with no effect
6,S405E,with no effect
7,S405A,with no effect
8,S405P,disrupting interaction strength
9,T381A,with no effect
10,T381K,with no effect
11,T381E,with no effect
12,T400E,with no effect
13,T400K,with no effect
14,T400A,with no effect
15,I412E,with no effect
16,I412A,with no effect
17,I412K,with no effect
18,I412R,disrupting interaction strength
19,G372E,with no effect
20,G372A,with no effect
21,G372K,with no effect
22,D371E,with no effect
23,D371V,disrupting interaction strength
24,D371A,with no effect
25,D371K,with no effect

row,Variant,effect of a mutation on the interaction
1,A398V,disrupting interaction strength
2,A398E,with no effect
3,A398K,with no effect
4,A414E,with no effect
5,A414K,with no effect
6,A414V,disrupting interaction strength
7,V389A,with no effect
8,V389S,disrupting interaction strength
9,V389E,disrupting interaction strength
10,V389K,disrupting interaction strength
11,R403E,with no effect
12,R403K,with no effect
13,R403A,with no effect
14,S388P,disrupting interaction strength
15,S388E,with no effect
16,S388K,with no effect
17,S388A,with no effect
18,H399K,with no effect
19,H399E,with no effect
20,H399A,with no effect
21,T406K,with no effect
22,T406E,with no effect
23,T406A,with no effect
24,P378K,with no effect
25,P378E,with no effect

row,Variant,effect of a mutation on the interaction
1,P378A,with no effect
2,L391E,with no effect
3,L391K,with no effect
4,L391A,with no effect
5,L387K,disrupting interaction strength
6,L387E,with no effect
7,L387A,with no effect
8,H384A,with no effect
9,H384E,with no effect
10,H384K,with no effect
11,T385K,with no effect
12,T385E,with no effect
13,T385A,disrupting interaction strength
14,T397E,with no effect
15,T397K,with no effect
16,T397A,with no effect
17,I411A,with no effect
18,I411E,with no effect
19,I411K,with no effect
20,A370K,with no effect
21,A370E,with no effect
22,E394K,with no effect
23,E394A,with no effect
24,G392A,with no effect
25,G392E,with no effect

row,Variant,effect of a mutation on the interaction
1,G392K,with no effect
2,R374E,with no effect
3,R374W,disrupting interaction strength
4,R374K,with no effect
5,R374A,with no effect
6,T410A,with no effect
7,T410E,with no effect
8,T410K,with no effect
9,S390G,disrupting interaction strength
10,S390A,with no effect
11,S390E,disrupting interaction strength
12,S390K,with no effect
13,N368A,with no effect
14,N368E,with no effect
15,N368K,with no effect
16,S365C,disrupting interaction strength
17,S365K,with no effect
18,S365A,with no effect
19,S365E,with no effect
20,G375A,with no effect
21,G375E,disrupting interaction strength
22,G375K,with no effect
23,H373E,with no effect
24,H373A,with no effect
25,H373K,with no effect

row,Variant,effect of a mutation on the interaction
1,F418E,with no effect
2,F418A,with no effect
3,R382E,disrupting interaction strength
4,R382K,with no effect
5,R382A,disrupting interaction strength
6,L367A,with no effect
7,L367E,with no effect
8,L367K,with no effect
9,A379E,with no effect
10,A379K,with no effect
11,A364K,with no effect
12,A364E,with no effect
13,L402A,with no effect
14,L402C,disrupting interaction strength
15,L402K,disrupting interaction strength
16,L402E,disrupting interaction strength
17,E401K,with no effect
18,E401A,with no effect
19,L363K,with no effect
20,L363E,with no effect
21,I417E,with no effect
22,I417A,with no effect
23,I417K,with no effect
